Laboratory results as given in paper PMC11617674 (2024).

Biological target: T1, GlnK (Escherichia coli (strain …, UniProt P0AC55,P0AC55,P0AC55))
T1 chain 1: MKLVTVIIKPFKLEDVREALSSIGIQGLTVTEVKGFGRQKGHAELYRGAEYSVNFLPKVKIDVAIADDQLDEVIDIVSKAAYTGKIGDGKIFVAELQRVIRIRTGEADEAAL
T1 chain 2: T1 chain 1
T1 chain 3: T1 chain 1
Test: BLI (His-PII trimer on sensor), ADP

B1: UmpH (protein)
chain: MTIKNVICDIDGVLMHDNVAVPGAAEFLHGIMDKGLPLVLLTNYPSQTGQDLANRFATAGVDVPDSVFYTSAMATADFLRRQEGKKAYVVGEGALIHELYKAGFTITDVNPDFVIVGETRSYNWDMMHKAAYFVANGARFIATNPDTHGRGFYPACGALCAGIEKISGRKPFYVGKPSPWIIRAALNKMQAHSEETVIVGDNLRTDILAGFQAGLETILVLSGVSSLDDIDSMPFRPSWIYPSVAEIDVI
With B1 the Kd was 7.8 nM.
